Results on 9 molecules are retold here after patent US11851478.

The assay deals with Chikungunya virus (CHIKV), infectious virus of the focus reduction neutralization test (Chikungunya virus). In words: cell-based or functional assay.

B1: CHKV-29 (antibody, V domains shown)
VH: EVQLVESGGVVVQPGGSLRLSCAASGFNFDDYTMHWVRQAPGKGLEWVSLITWDGLSTYYADSMKGRFTISRDNSKDSLYLQMDSLRTEDTAFYYCVRDMGPGAVHFYFYGMDVWGQGTLVTVSS
VL: QSALTQPASVSGSPGQSITISCTGTSSDVGNYNLVSWYQQHPGKVPKLIIYEVSKRPSGISKRFSASKSGNTASLTISGLQAEDEADYYCCSYAGSSGVFGAGTKLTVL
As to B1, the IC50 FRNT* (ng/mL) against CHIKV is 86 ng/mL.

B2: CHKV-32 (antibody, V domains shown)
VH: QVQLVQSGAEVKKPGASVKVSCKASGYTFTTFAMHWVRQAPGQGLECMGWINTANGYTKYSQKFQGRVTITSDTSASTASMELSSLTSKDTAVYYCARVQDFGHYEGGYGYWGQGTLVTVSS
VL: QSVLTQPPSVSGAPGQRVIISCTGSSSNIGAGYDVHWYQQLPGTAPKLLIYGNSYRPSGVPDRFSGSRSGTSASLAITGLQAEDEADYYCQSHDSSLNDFNVFGSGTKVTVL
Turning to B2, the IC50 FRNT* (ng/mL) against CHIKV turned out to be 81 ng/mL.

B3: CHKV-31 (antibody, V domains shown)
VH: EVQLVESGGGLVQPGGSLRLSCAASGFTFSNYAMSWVRQAPGKGLEWVSGISGSGRTTYYTDSVKGRFNISRDNTKNTLFLQMNSLRAEDTAVYYCVKDRAGWFGNYFDYWGQGTLVTVSS
VL: DIQMTQSPSSLSASVGDRVTITCRASQGISNYLAWFQQKPGKAPKSLIYAASSLQSGVPSKFSGSRSGTNFTLTISSLQPEDFATYYCQQYNTYPPTFGQGTTVEIK
In turn, B3 gave an IC50 FRNT* (ng/mL) against CHIKV of 684 ng/mL.

B4: CHKV-50 (antibody, V domains shown)
VH: EVQLVESGGGLVQPGRSLRLSCAASGFTFDDYAMHWVRQAPGKGLEWVSGISWNSGFIGYADSVKGRFTISRDNAKNSLYLQMNSLRAEDTALYYCAKDLGRAYSSGWYLFDYWGQGTLVTVSS
VL: SYVLTQPPSVSVAPGKTARITCGGNNIGSKSVHWYQQLPGQAPVLVVYDDSDRPSGIPERFSGSNSGYTATLIISRVEAGDEADYYCQVWDSTSDHACVFGPGTKVTVL
B4: the IC50 FRNT* (ng/mL) against CHIKV was found to be 2270 ng/mL.

B5: CHKV-35 (antibody, V domains shown)
VH: EVQLVESGGGLVPPGGSLRVSCAASGFTLRSYVMAWVRQAPGKGLEWVSGISGDGDHTYYADSVKGRFTISRDNSKNTLYLQMHSLRAEDTALYYCVKDWGIRGIYYPSGMDVWGQGTTVIVSS
VL: SLELAQPPSVSVSPGQTARITCSGDGLPQAYAYWYQKKPGQAPVPLIYKDTERPSGIPERFSGSSSGTTVTLTISGVQAEDEADYYCQSADSIGTNVIFGGGTKLTVL
On to B5, for which the IC50 FRNT* (ng/mL) against CHIKV was found to be 11 ng/mL.

B6: CHKV-53 (antibody, V domains shown)
VH: QLQLQESGPGLVKPSETLSLTCTVSGGSISSTSHYWGWIRQPPGKGLEWIGNIYYSGSTYYKSSLKSRVAISVDTSKNQFSLKLSSVTAADTAVYFCARVVVGGYYDNRGYYRGPPTPLYYFDYWGQGTLVTVSS
VL: DIQMTQSPSSVSASVGDRVTISCRASPGISTWLAWYQQKPGKAPKLLIYAVSSLQSGVPSRFSGSGSGTDFTLTISSLQPEDFATYYCQQANSLSWTFGQGTKVEIK
Molecule B6 showed an IC50 FRNT* (ng/mL) against CHIKV of 319 ng/mL.

B7: CHKV-27 (antibody, V domains shown)
VH: QVQLVQSGAEVKKPGASVKVSCKPSGYNFIDYAMHWVRQAPGQRLEWMGWINAANDNREYSQKFQGRVTLTRDTSATTAYMELSSLTFEDTAVYYCARDRGTMVRGVGGWFDPWGQGTLVTVSS
VL: SYVLTQPPSVSVAPGETARITCGGNNIGSKSVHWYQQKPVQAPVVVVYDDSDRPSGIPERFSGSNSGNTATLTISRVEAGDEADYYCQVWDSSSNHPVFGGGTKVAVL
Molecule B7 had an IC50 FRNT* (ng/mL) against CHIKV of 17 ng/mL.

B8: CHKV-24 (antibody, V domains shown)
VH: QVQLVESGGGVVQPGKSLRLSCAASGFTFRNYGMHWVRQAPGKGLDWVALISYDGTHKYYKDSLKGRFTISRDNFQNTVDLQINSLRPDDTAVYYCAKELATSGVVEPLDSWGQGTLVTVSS
VL: EIVLTQSPGTLSLSPGERATLSCRASQSLVSSYFGWYQQKRGQSPRLLIYAASTRATGIPDRFSGSGSGTDFTLTISRLEPEDFAVYYCQQYGNTPFTFGGGTKVEIK
B8 returned an IC50 FRNT* (ng/mL) against CHIKV of 4 ng/mL.

B9: CHKV-48 (antibody, V domains shown)
VH: QVQLQESGPGLVKPSQTLSLTCAVSGGSISSGGYSWSWIRQPPGKGLEWIGYIYYSGSTYYNPSLKSRLTISMDTSKNHFSLKLSSVTAADTAVYYCATDYCSSTSCNTGAPVNWGQGTLVTVSS
VL: DIQLTQSPSFLSASVGDRVTITCRASQGISSYLAWYQQKPGKAPKLLINAASTLQSGVPSRFSGSGSGTEFTLTISSLQPEDFATYYCQQFNAYPYTFGQGTKLEIK
Consider B9, for which the IC50 FRNT* (ng/mL) against CHIKV was 37 ng/mL.
